From patent US20140212431A1 (Genentech, published 2014)

How the values were obtained:
[1] = biological target: T1, recombinant human PCSK9 with a histidine (His)8 C-terminal tag (human, UniProt Q8NBP7 31-692, biotinylated in vitro (EZ-link Sulfo-NHS-biotinylation kit) where the assay names biotinylated PCSK9); test: cell-based or functional assay
[2] = biological target: T1, recombinant human PCSK9 with a …; test: SPR (Biacore 3000), EGF-Fc captured by anti-human Fc, PCSK9 injected, 1 mM CaCl2; SPR, 1 mM Ca^2+
[3] = biological target: T1, recombinant human PCSK9 with a …; test: biolayer interferometry (Octet RED 384), EGF-Fc on Fc biosensor, PCSK9 0-500 nM, 1 mM CaCl2, steady state fit; biolayer interferometry, steady state, 1 mM CaCl2

EC50: concentration that restored LDLR levels on the HepG2 cell surface to 50% of control [1]: 11000 nM | Kd [2]: 935 nM | Kd [3]: 900 nM
B1: EGFwt-Fc fusion protein (Fc fusion)
chain: not shown
notes: A single EGF-Fc protein contains two EGF domains; also called EGF-Fc (WT); EGF(A)-Fc; not shown: Fc domain of human IgG1 (C222-K443)
